Measurements published in IntAct's records for PubMed 10357812.

B1: Synaptojanin-2 (Rattus norvegicus (Rat)), O55207-3 (parent)
chain: MALSKGLRLLARLDPTGPSSVLLEARGRGDCLLFEAGAVATLAPEEKEVIKGLYGKPTDAYGCLGELSLKSGGVPLSFLVLVTGCTSVGRIPDAEIYKITGTEFYPLQEEAKEEDRLPALKKILSSGVFYFAWPNDGACFDLTIRAQKQGDDCSEWGTSFFWNQLLHVPLRQHQVNCHDWLLKVICGVVTIRTVYASHKQAKACLISRISCERAGARFLTRGVNDDGHVSNFVETEQAIYMDDGVSSFVQIRGSVPLFWEQPGLQVGSHHLRLHRGLEANAPAFERHMVLLKEQYGQQVVVNLLGSRGGEEVLNRAFKKLLWASCHAGDTPMINFDFHQFAKGRKLEKLENLLRPQLKLHWDDFGVFAKGENVSPRFQKGTLRMNCLDCLDRTNTVQCFIALEVLHLQLESLGLNSKPITDRFVESFKAMWSLNGHGLSKVFTGSRALEGKAKVGKLKDGARSMSRTIQSNFFDGVKQEAIKLLLVGDVYNEESTDKGRMLLDNTALLGLGSNKQNSLSGMLDGKATPRILKAMTERQSEFTNFKRIQIAMGTWNVNGGKQFRSNLLGTTELTDWLLDAPQLSGAVDSQDDGGPADIFAVGFEEMVELSAGNIVNASTTNRKMWGEQLQKAISRSHRYILLTSAQLVGVCLYIFVRPYHVPFIRDVAIDTVKTGMGGKAGNKGAVGIRFQFHSTSFCFICSHLTAGQSQVKERNEDYREITHKLSFPSGRNIFSHDYVFWCGDFNYRIDLTYEEVFYFVKRQDWKKLMEFDQLQLQKSSGKIFKDFHEGTINFGPTYKYDVGSAAYDTSDKCRTPAWTDRVLWWRKKHPYDKTAGELNLLDSDLDGDANIRHTWSPGTLKYYGRAELQASDHRPVLAIVEVEVQEVDVGARERVFQEVSSVQGPLDATVIVNLQSPTLEERNEFPEDLRTELMQTLGNYGTIILVRINQGQMLVTFADSHSALSVLDVDGMKVKGRAVKIRPKTKDWLEGLREELIRKRDSMAPVSPTANSCLLEENFDFTSLDYESEGDVLEDDEDYLADEFGQPVVSDSELGGDDSSDTMSASTPASKSPALAKKKQHPTYKDDADLMTLKLELEVAGNFRHRSPSRSLSVPNRPRPPHPPQRPPPPTGLMVKKSASDASISSGTHGQYSILQTAKLLPGAPQQPPKARTGISKPYNVKQIKTTNAQEAEAAIRCLLEAGGGVPESAPGATPLRNQGSSKPEASLGPPVLPRRPVPRVPTMKKPTLRRTGKIVFCSSSQASQPCSLLQRHEFVRTVAAQRLTPVDASGSSV
partner: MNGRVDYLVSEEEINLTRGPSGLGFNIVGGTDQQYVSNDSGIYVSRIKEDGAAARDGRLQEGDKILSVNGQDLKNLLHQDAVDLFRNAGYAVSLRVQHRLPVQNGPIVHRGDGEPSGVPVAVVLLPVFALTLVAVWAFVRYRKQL

Variants of: B1
Settings: with syj2b_rat Synj2bp

Variant | effect of a mutation on the interaction
S1291A | disrupting interaction
G1290A | disrupting interaction
V1293A | disrupting interaction
